The subject of the data set is Bacillus subtilis. The data set is described as follows: cleaved RNA product abundance (RNA/gDNA barcode ratio) relative to median wild-type variant (ratio to wild type); higher = more accumulation of the downstream cleavage product. The conditions noted are these: cleavage site: cggR-gapA (positions -7 to +36 mutated). The procedure, abridged:
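Sequencing of barcodes from gel-selected, reverse-transcribed cleaved RNA and from genomic DNA, with UMI collapsing, yielded a per-construct RNA:gDNA ratio. Scaled to the median construct with the unmutated site, this ratio is the cleaved product abundance. The barcoded reporters (truncated aprE or tetM mRNAs with mutagenized RNase Y cleavage-site windows) were integrated into the B. subtilis chromosome, and cultures grew in LB at 37°C from OD600 0.0003 to 0.3.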

Where [1] appears, read: experiment (reporter, strain, medium): exp 2b: truncated aprE reporter, strain BJT200.
Setting [2] is: experiment (reporter, strain, medium): exp 4a: truncated aprE reporter, strain BJT201 with 2% xylose (RNase J1 expressed).
The mark [3] stands for this setting: experiment (reporter, strain, medium): exp 6: tetM reporter, strain 168.

Regarding “ACAGACGAAGGAGCCGCAAAGAAGTTATTAAGGGATGAAAAATCCCTAAATATAAATATCTCTCACTTATTTAAA”, the “cleaved RNA product abundance” value turned out to be 0.499 under setting [1] and 0.445 under setting [2].

On to “ACAGACGAAGGAGCCGCAAAGAAGTTATTAAGGGATGAAAAATCCCTCAAAATAAATATCTCTCACTTATTTAAA”, for which the “cleaved RNA product abundance” value under setting [2] is 0.333.

For “ACAGACGAAGGAGCCGCAAAGAAGTTATTAAGGGATGAAAAATCCCTCAAGATAAATATCTCTCACTTATTTAAA”, the “cleaved RNA product abundance” value came to 0.159 under setting [1] and 0.314 under setting [2].

Consider “ACAGACGAAGGAGCCGCAAAGAAGTTATTAAGGGATGAAAAATCCCTCAATAAAAATATCTCTCACTTATTTAAA”, for which the “cleaved RNA product abundance” value under setting [2] was 0.217.

Take “ACAGACGAAGGAGCCGCAAAGAAGTTATTAAGGGATGAAAAATCCCTCAATAGAAATATCTCTCACTTATTTAAA”: the “cleaved RNA product abundance” value under setting [2] is 0.192.

With “ACAGACGAAGGAGCCGCAAAGAAGTTATTAAGGGATGAAAAATCCCTCAATATAAAAATCTCTCACTTATTTAAA”, the “cleaved RNA product abundance” value is, setting by setting: under setting [1], 0.798; under setting [2], 0.692.

As to “ACAGACGAAGGAGCCGCAAAGAAGTTATTAAGGGATGAAAAATCCCTCAATATAAACATCTCTCACTTATTTAAA”, the “cleaved RNA product abundance” value under setting [2] was 0.772.

Take “ACAGACGAAGGAGCCGCAAAGAAGTTATTAAGGGATGAAAAATCCCTCAATATAAATAACTCTCACTTATTTAAA”: the “cleaved RNA product abundance” value under setting [2] is 0.632.

In the case of “ACAGACGAAGGAGCCGCAAAGAAGTTATTAAGGGATGAAAAATCCCTCAATATAAATAGCTCTCACTTATTTAAA”, the “cleaved RNA product abundance” value under setting [2] was found to be 0.554.

Take “ACAGACGAAGGAGCCGCAAAGAAGTTATTAAGGGATGAAAAATCCCTCAATATAAATATCTCTCACTTATTTAAA”: the “cleaved RNA product abundance” value reads like this: under setting [1], 0.78; under setting [2], 0.781; under setting [3], 0.985.

For “ACAGACGAAGGAGCCGCAAAGAAGTTATTAAGGGATGAAAAATCCCTCAATATAAATGTCTCTCACTTATTTAAA”, the “cleaved RNA product abundance” value by setting is: under setting [1], 0.304; under setting [2], 0.622.

As to “ACAGACGAAGGAGCCGCAAAGAAGTTATTAAGGGATGAAAAATCCCTCAATATAATTATCTCTCACTTATTTAAA”, the “cleaved RNA product abundance” value under setting [2] was 0.171.

“ACAGACGAAGGAGCCGCAAAGAAGTTATTAAGGGATGAAAAATCCCTCAATATAGATATCTCTCACTTATTTAAA”: the “cleaved RNA product abundance” value under setting [1] is 0.277.

For “ACAGACGAAGGAGCCGCAAAGAAGTTATTAAGGGATGAAAAATCCCTCAATATCAATATCTCTCACTTATTTAAA”, the “cleaved RNA product abundance” value under setting [2] stood at 0.0918.

As for “ACAGACGAAGGAGCCGCAAAGAAGTTATTAAGGGATGAAAAATCCCTCAATATGAATATCTCTCACTTATTTAAA”, under setting [2], the “cleaved RNA product abundance” value came to 0.151.

On to “ACAGACGAAGGAGCCGCAAAGAAGTTATTAAGGGATGAAAAATCCCTCAATATTAATATCTCTCACTTATTTAAA”, for which the “cleaved RNA product abundance” value is 0.199 under setting [1] and 0.157 under setting [2].

On to “ACAGACGAAGGAGCCGCAAAGAAGTTATTAAGGGATGAAAAATCCCTCAATTTAAATATCTCTCACTTATTTAAA”, for which the “cleaved RNA product abundance” value under setting [1] is 0.2.

Regarding “ACAGACGAAGGAGCCGCAAAGAAGTTATTAAGGGATGAAAAATCCCTCACTATAAATATCTCTCACTTATTTAAA”, under setting [1], the “cleaved RNA product abundance” value was determined as 0.161.

For “ACAGACGAAGGAGCCGCAAAGAAGTTATTAAGGGATGAAAAATCCCTCAGTATAAATATCTCTCACTTATTTAAA”, the “cleaved RNA product abundance” value under setting [2] stood at 0.224.

With “ACAGACGAAGGAGCCGCAAAGAAGTTATTAAGGGATGAAAAATCCCTCATTATAAATATCTCTCACTTATTTAAA”, the “cleaved RNA product abundance” value amounted to 0.226 under setting [1] and 0.331 under setting [2].

Regarding “ACAGACGAAGGAGCCGCAAAGAAGTTATTAAGGGATGAAAAATCCCTCTATATAAATATCTCTCACTTATTTAAA”, under setting [2], the “cleaved RNA product abundance” value is 0.535.

Take “ACAGACGAAGGAGCCGCAAAGAAGTTATTAAGGGATGAAAAATCCGTCAATATAAATATCTCTCACTTATTTAAA”: the “cleaved RNA product abundance” value under setting [2] worked out at 0.355.

In the case of “ACAGACGAAGGAGCCGCAAAGAAGTTATTAAGGGATGAAAAATCCTTCAATATAAATATCTCTCACTTATTTAAA”, the “cleaved RNA product abundance” value under setting [1] came to 0.355 and the “cleaved RNA product abundance” value under setting [2] was determined as 0.505.

As to “ACAGACGAAGGAGCCGCAAAGAAGTTATTAAGGGATGAAAAATCGCTCAATATAAATATCTCTCACTTATTTAAA”, the “cleaved RNA product abundance” value under setting [2] turned out to be 0.0823.

“ACAGACGAAGGAGCCGCAAAGAAGTTATTAAGGGATGAAAAATCTCTCAATATAAATATCTCTCACTTATTTAAA”: under setting [2], the “cleaved RNA product abundance” value turned out to be 0.506.

“ACAGACGAAGGAGCCGCAAAGAAGTTATTAAGGGATGAAAAATTCCTCAATATAAATATCTCTCACTTATTTAAA”: the “cleaved RNA product abundance” value amounted to 0.274 under setting [1] and 0.327 under setting [2].

With “ACAGACGAAGGAGCCGCAAAGAAGTTATTAAGGGATGAAAACTCCCTCAATATAAATATCTCTCACTTATTTAAA”, the “cleaved RNA product abundance” value under setting [1] came out at 0.816.

On to “ACAGACGAAGGAGCCGCAAAGAAGTTATTAAGGGATGAAATATCCCTCAATATAAATATCTCTCACTTATTTAAA”, for which the “cleaved RNA product abundance” value under setting [2] was 0.586.

With “ACAGACGAAGGAGCCGCAAAGAAGTTATTAAGGGATGAACAATACCTCAATATAAATATCTCTCACTTATTTAAA”, the “cleaved RNA product abundance” value under setting [2] came out at 0.229.

Consider “ACAGACGAAGGAGCCGCAAAGAAGTTATTAAGGGATGAACAATCACTCAATATAAATATCTCTCACTTATTTAAA”, for which, under setting [2], the “cleaved RNA product abundance” value was found to be 0.105.

For “ACAGACGAAGGAGCCGCAAAGAAGTTATTAAGGGATGAACAATCCCACAATATAAATATCTCTCACTTATTTAAA”, the “cleaved RNA product abundance” value under setting [2] is 0.364.

As for “ACAGACGAAGGAGCCGCAAAGAAGTTATTAAGGGATGAACAATCCCTAAATATAAATATCTCTCACTTATTTAAA”, the “cleaved RNA product abundance” value is 0.33 under setting [1] and 0.62 under setting [2].

With “ACAGACGAAGGAGCCGCAAAGAAGTTATTAAGGGATGAACAATCCCTCAACATAAATATCTCTCACTTATTTAAA”, the “cleaved RNA product abundance” value under setting [2] came out at 0.265.

Consider “ACAGACGAAGGAGCCGCAAAGAAGTTATTAAGGGATGAACAATCCCTCAATAAAAATATCTCTCACTTATTTAAA”, for which the “cleaved RNA product abundance” value under setting [2] was found to be 0.151.

As for “ACAGACGAAGGAGCCGCAAAGAAGTTATTAAGGGATGAACAATCCCTCAATATAAATATCTCTCACTTATTTAAA”, the “cleaved RNA product abundance” value reads like this: under setting [1], 0.842; under setting [2], 0.864; under setting [3], 0.875.

Regarding “ACAGACGAAGGAGCCGCAAAGAAGTTATTAAGGGATGAACAATCCCTCAATATATATATCTCTCACTTATTTAAA”, under setting [2], the “cleaved RNA product abundance” value came out at 0.441.

On to “ACAGACGAAGGAGCCGCAAAGAAGTTATTAAGGGATGAACAATCCCTCAATATTAATATCTCTCACTTATTTAAA”, for which, under setting [2], the “cleaved RNA product abundance” value stood at 0.189.

Turning to “ACAGACGAAGGAGCCGCAAAGAAGTTATTAAGGGATGAACAATCCCTCACTATAAATATCTCTCACTTATTTAAA”, the “cleaved RNA product abundance” value under setting [2] came out at 0.331.

On to “ACAGACGAAGGAGCCGCAAAGAAGTTATTAAGGGATGAACAATCCCTCATTATAAATATCTCTCACTTATTTAAA”, for which the “cleaved RNA product abundance” value is 0.22 under setting [1] and 0.321 under setting [2].

For “ACAGACGAAGGAGCCGCAAAGAAGTTATTAAGGGATGAACAATCCCTCGATATAAATATCTCTCACTTATTTAAA”, under setting [2], the “cleaved RNA product abundance” value was 0.554.

Consider “ACAGACGAAGGAGCCGCAAAGAAGTTATTAAGGGATGAACAATCCGTCAATATAAATATCTCTCACTTATTTAAA”, for which the “cleaved RNA product abundance” value under setting [2] worked out at 0.109.

Take “ACAGACGAAGGAGCCGCAAAGAAGTTATTAAGGGATGAACAATCCTTCAATATAAATATCTCTCACTTATTTAAA”: the “cleaved RNA product abundance” value under setting [2] amounted to 0.58.

On to “ACAGACGAAGGAGCCGCAAAGAAGTTATTAAGGGATGAACAATCGCTCAATATAAATATCTCTCACTTATTTAAA”, for which the “cleaved RNA product abundance” value under setting [2] was 0.104.

With “ACAGACGAAGGAGCCGCAAAGAAGTTATTAAGGGATGAACAATGCCTCAATATAAATATCTCTCACTTATTTAAA”, the “cleaved RNA product abundance” value under setting [2] turned out to be 0.136.

As to “ACAGACGAAGGAGCCGCAAAGAAGTTATTAAGGGATGAACAATTCCTCAATATAAATATCTCTCACTTATTTAAA”, the “cleaved RNA product abundance” value under setting [2] was determined as 0.44.

Turning to “ACAGACGAAGGAGCCGCAAAGAAGTTATTAAGGGATGAACATTCCCTCAATATAAATATCTCTCACTTATTTAAA”, the “cleaved RNA product abundance” value under setting [2] is 0.633.

Turning to “ACAGACGAAGGAGCCGCAAAGAAGTTATTAAGGGATGAACTATCCCTCAATATAAATATCTCTCACTTATTTAAA”, the “cleaved RNA product abundance” value under setting [2] was found to be 0.794.

For the sequence “ACAGACGAAGGAGCCGCAAAGAAGTTATTAAGGGATGAAGAAGCCCTCAATATAAATATCTCTCACTTATTTAAA”, the “cleaved RNA product abundance” value under setting [2] was 0.549.

On to “ACAGACGAAGGAGCCGCAAAGAAGTTATTAAGGGATGAAGAATACCTCAATATAAATATCTCTCACTTATTTAAA”, for which the “cleaved RNA product abundance” value under setting [2] was 0.106.

For the sequence “ACAGACGAAGGAGCCGCAAAGAAGTTATTAAGGGATGAAGAATCCATCAATATAAATATCTCTCACTTATTTAAA”, the “cleaved RNA product abundance” value under setting [1] is 0.124.

For “ACAGACGAAGGAGCCGCAAAGAAGTTATTAAGGGATGAAGAATCCCCCAATATAAATATCTCTCACTTATTTAAA”, under setting [2], the “cleaved RNA product abundance” value came to 0.183.

On to “ACAGACGAAGGAGCCGCAAAGAAGTTATTAAGGGATGAAGAATCCCTAAATATAAATATCTCTCACTTATTTAAA”, for which, under setting [2], the “cleaved RNA product abundance” value came to 0.44.

As for “ACAGACGAAGGAGCCGCAAAGAAGTTATTAAGGGATGAAGAATCCCTCAATATAAATATCTCTCACTTATTTAAA”, the “cleaved RNA product abundance” value is 0.653 under setting [1], 0.658 under setting [2] and 0.732 under setting [3].

As to “ACAGACGAAGGAGCCGCAAAGAAGTTATTAAGGGATGAAGAATCCCTCAATATCAATATCTCTCACTTATTTAAA”, under setting [2], the “cleaved RNA product abundance” value came to 0.0586.

For “ACAGACGAAGGAGCCGCAAAGAAGTTATTAAGGGATGAAGAATCCCTCCATATAAATATCTCTCACTTATTTAAA”, the “cleaved RNA product abundance” value under setting [2] came to 0.273.

Values taken from the supplement of paper PMC11780869.
